According to publication doi:10.1101/2022.08.17.504309:

Biological target: C-type lectin domain of CD62P (P-selectin), residues 1-117, wild type (UniProt P16109)
Assay: ELISA

UniProt P16109, sequence (P16109 42-158): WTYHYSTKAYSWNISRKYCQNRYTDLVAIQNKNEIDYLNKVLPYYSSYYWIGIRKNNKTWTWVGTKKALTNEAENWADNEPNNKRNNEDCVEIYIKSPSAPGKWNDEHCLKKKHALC

| Substance | fold binding against the combined lectin and EGF-like domains [fold] |
| --- | --- |
| soluble integrin αvβ3 (from UniProt P06756;P05106) (complex) | 2 |
| soluble recombinant integrin αIIbβ3 (from UniProt P08514;P05106) (complex) | 2 |
